Target: rat agrin (the transmembrane isoform Y4, Z8) (rat) (UniProt P25304)
Experiment: cell-based or functional assay

Sequence of UniProt P25304 (P25304 whole entry, canonical isoform): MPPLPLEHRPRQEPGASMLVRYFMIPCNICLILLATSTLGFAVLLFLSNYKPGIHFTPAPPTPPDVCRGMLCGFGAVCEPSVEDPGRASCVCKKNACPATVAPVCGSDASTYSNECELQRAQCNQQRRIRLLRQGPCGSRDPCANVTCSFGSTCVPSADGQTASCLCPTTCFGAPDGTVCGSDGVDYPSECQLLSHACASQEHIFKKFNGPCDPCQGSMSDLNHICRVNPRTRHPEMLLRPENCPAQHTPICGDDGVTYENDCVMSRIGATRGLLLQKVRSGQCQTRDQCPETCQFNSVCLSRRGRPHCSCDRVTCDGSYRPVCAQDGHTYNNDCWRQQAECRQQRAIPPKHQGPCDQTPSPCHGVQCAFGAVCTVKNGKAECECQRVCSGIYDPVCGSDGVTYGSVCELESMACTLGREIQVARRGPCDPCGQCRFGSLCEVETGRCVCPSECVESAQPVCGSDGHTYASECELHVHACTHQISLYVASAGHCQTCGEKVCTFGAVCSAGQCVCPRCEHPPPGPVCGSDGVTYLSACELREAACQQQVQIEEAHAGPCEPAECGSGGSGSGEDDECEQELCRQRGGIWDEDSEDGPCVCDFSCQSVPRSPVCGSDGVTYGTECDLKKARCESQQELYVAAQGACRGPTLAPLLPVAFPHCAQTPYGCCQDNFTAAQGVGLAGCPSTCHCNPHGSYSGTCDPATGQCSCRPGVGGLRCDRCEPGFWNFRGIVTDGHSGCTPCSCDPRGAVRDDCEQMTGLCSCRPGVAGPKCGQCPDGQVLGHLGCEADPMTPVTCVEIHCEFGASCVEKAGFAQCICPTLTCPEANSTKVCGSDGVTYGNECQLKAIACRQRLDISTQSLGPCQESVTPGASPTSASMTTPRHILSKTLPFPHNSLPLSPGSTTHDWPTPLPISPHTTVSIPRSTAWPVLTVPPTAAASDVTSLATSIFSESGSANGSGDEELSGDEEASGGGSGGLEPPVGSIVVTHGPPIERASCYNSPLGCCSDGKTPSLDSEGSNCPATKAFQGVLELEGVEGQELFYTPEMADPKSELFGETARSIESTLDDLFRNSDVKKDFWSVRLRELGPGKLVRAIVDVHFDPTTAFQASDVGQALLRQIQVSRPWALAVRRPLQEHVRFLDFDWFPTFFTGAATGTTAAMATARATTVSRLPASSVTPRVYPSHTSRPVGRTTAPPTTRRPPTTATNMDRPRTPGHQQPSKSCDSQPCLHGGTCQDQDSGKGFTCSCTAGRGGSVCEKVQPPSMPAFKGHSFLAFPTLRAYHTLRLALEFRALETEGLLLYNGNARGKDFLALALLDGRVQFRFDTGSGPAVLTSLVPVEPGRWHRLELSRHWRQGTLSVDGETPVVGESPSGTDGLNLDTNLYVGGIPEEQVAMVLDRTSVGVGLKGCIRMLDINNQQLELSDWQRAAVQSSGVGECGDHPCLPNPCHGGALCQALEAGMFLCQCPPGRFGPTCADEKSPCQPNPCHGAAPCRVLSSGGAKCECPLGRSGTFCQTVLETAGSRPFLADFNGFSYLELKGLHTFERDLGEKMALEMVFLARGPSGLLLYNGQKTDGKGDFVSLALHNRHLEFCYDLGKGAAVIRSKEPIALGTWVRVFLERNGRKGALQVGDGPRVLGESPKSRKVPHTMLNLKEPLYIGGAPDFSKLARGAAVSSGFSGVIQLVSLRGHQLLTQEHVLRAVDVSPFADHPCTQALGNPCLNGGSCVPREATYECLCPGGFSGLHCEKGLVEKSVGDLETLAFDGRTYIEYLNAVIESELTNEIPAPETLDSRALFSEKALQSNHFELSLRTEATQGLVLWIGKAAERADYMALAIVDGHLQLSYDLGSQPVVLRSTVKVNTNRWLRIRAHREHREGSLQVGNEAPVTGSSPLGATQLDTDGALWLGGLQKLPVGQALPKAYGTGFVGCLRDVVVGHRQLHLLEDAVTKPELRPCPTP

soluble agrin fragment in culture medium of co-transfected HEK293T cells (Western blot): 100 kDa
Substance: neurotrypsin of the mouse (compound of the formula II) (from UniProt O08762 22-761) (enzyme)

Reference: patent US20050032694A1
